Target: the molecule itself
Assay: sedimentation velocity AUC, 150 mM NaCl, pH 6.0; self-association

B1: mouse galactocerebrosidase (mGalC), recombinant (enzyme)
chain: YVLDDSDGLGREFDGIGAVSGGGATSRLLVNYPEPYRSEILDYLFKPNFGASLHILKVEIGGDGQTTDGTEPSHMHYELDENYFRGYEWWLMKEAKKRNPDIILMGLPWSFPGWLGKGFSWPYVNLQLTAYYVVRWILGAKHYHDLDIDYIGIWNERPFDANYIKELRKMLDYQGLQRVRIIASDNLWEPISSSLLLDQELWKVVDVIGAHYPGTYTVWNAKMSGKKLWSSEDFSTINSNVGAGCWSRILNQNYINGNMTSTIAWNLVASYYEELPYGRSGLMTAQEPWSGHYVVASPIWVSAHTTQFTQPGWYYLKTVGHLEKGGSYVALTDGLGNLTIIIETMSHQHSMCIRPYLPYYNVSHQLATFTLKGSLREIQELQVWYTKLGTPQQRLHFKQLDTLWLLDGSGSFTLELEEDEIFTLTTLTTGRKGSYPPPPSSKPFPTNYKDDFNVEYPLFSEAPNFADQTGVFEYYMNNEDREHRFTLRQVLNQRPITWAADASSTISVIGDHHWTNMTVQCDVYIETPRSGGVFIAGRVNKGGILIRSATGVFFWIFANGSYRVTADLGGWITYASGHADVTAKRWYTLTLGIKGYFAFGMLNGTILWKNVRVKYPGHGWAAIGTHTFEFAQFDNFRVEAAR
notes: also called rmGALC; rmGalC
Question: Does B1 bind?
Answer: binds

From patent publication US20130295071A1 (SHIRE HUMAN GENETIC THERAPIES, published 2013)
